Patent publication US20220323583A1, “Pharmaceutical Formulations of Bi-Specific Diabodies and Use of the Same” (MacroGenics, Inc., priority 2019, published 2022)

Assays:
Cynomolgus CD123-His = test: Binding of DART-A to CD123 (ka, kd, KD); set-up: species or system cynomolgus monkey
[1] = FLR SE-HPLC protein recovery (monomer peak area); assay type: physicochemical
Experimental: Four levels of PS80 were tested during this study to evaluate the blocking activity of the surfactant. Briefly, test stabilizer solutions (10 mM sodium phosphate at pH 6.0, 150 mM sodium chloride, 1.6 mg/mL BA and 0, 0.05, 0.1, or 0.2 mg/mL PS80) were added to a normal saline containing IV bag. After thorough mixing, the DART-A DP formulation was added to the same IV bag. The bag containing the dosing solution was incubated at 25±2° C. and samples were collected at 0, 24 and 48 hours (the longest proposed administration time). Each sample was analyzed using FLR/SE-HPLC and verified using ELISA to quantify DART-A protein recovery.
For both low and high concentration infusions, samples were collected at 24, 48, and 72 hours from sampling point #5. […] The data was calculated against the expected TO sample to obtain the DART-A recovery. […] Similar to other binding ELISA assays, these ranges are within the typical variation of this type of bioassay (50%-150%).
FLR SE-HPLC analysis was performed to measure protein purity, monomer purity and protein stability. The FLR SE-HPLC configuration included a fluorescence (FLR) detector (λX=280 nm, λE=340 nm), a mobile phase composition of 350 mM Mobile Phase (175 mMNaH2PO4, 175 mMNa2SO, pH 6.3) and a TosoBio TSK G3000SWXL size exclusion column. Samples were diluted to 0.1 mg/mL and stored at 5±3° C. for 24 to 96 hours prior to analysis. Eight μg of protein (or 100 μL is sample concentration was below 0.1 mg/mL) was injected for each 30-minute run. HMW and LMW species and monomer peaks were monitored.

[2] = test system: soluble recombinant human CD3 (shCD3-Fos-Jun); test: CD3 binding ELISA (relative potency); conditions: Relative Potency vs DART-A reference standard, 1250 ng/mL dosing solution, Stabilizer 2
Chain of soluble recombinant human CD3 (shCD3-Fos-Jun) (P07766 23-126 limits assumed): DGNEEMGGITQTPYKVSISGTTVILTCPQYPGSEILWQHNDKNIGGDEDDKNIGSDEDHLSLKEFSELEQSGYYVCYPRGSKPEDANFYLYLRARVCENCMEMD
From the text: The two CD3 chains (delta and gamma) contain either the Fos protein or the Jun protein to enhance proper folding and functionality of the CD3 complex. […] The soluble CD3-Fos-Jun, was coated on the surface of an ELISA plate. […] Quantification of bound probe antibody was achieved by addition of a colorimetric AP substrate (AP-Yellow 1 Component Substrate). Oxidation of AP-Yellow by AP yields a colored product that can be read at 405±10 nm. The assay was quantified by the intensity of color, measured using a spectrophotometer set to an optimal wavelength of 405±10 nm. Data were fitted to a four-parameter model with the following variable constraints: the maximum, minimum and slope of each dose response curve is set to be shared between all dose response curves on the plate; the EC50 was determined independently for each curve.

B1: DART-A: sequence-optimized CD123×CD3 bispecific diabody; chains SEQ ID NO:42 and SEQ ID NO:44 covalently bonded by a disulfide bond (protein)
chain 1: QAVVTQEPSLTVSPGGTVTLTCRSSTGAVTTSNYANWVQQKPGQAPRGLIGGTNKRAPWTPARFSGSLLGGKAALTITGAQAEDEADYYCALWYSNLWVFGGGTKLTVLGGGGSGGGGEVQLVQSGAELKKPGASVKVSCKASGYTFTDYYMKWVRQAPGQGLEWIGDIIPSNGATFYNQKFKGRVTITVDKSTSTAYMELSSLRSEDTAVYYCARSHLLRASWFAYWGQGTLVTVSSGGCGGGEVAALEKEVAALEKEVAALEKEVAALEK
chain 2: DFVMTQSPDSLAVSLGERVTMSCKSSQSLLNSGNQKNYLTWYQQKPGQPPKLLIYWASTRESGVPDRFSGSGSGTDFTLTISSLQAEDVAVYYCQNDYSYPYTFGQGTKLEIKGGGSGGGGEVQLVESGGGLVQPGGSLRLSCAASGFTFSTYAMNWVRQAPGKGLEWVGRIRSKYNNYATYYADSVKDRFTISRDDSKNSLYLQMNSLKTEDTAVYYCVRHGNFGNSYVSWFAYWGQGTLVTVSSGGCGGGKVAALKEKVAALKEKVAALKEKVAALKE
modifications: interchain disulfide bond; First Polypeptide Chain of DART-A; Second Polypeptide Chain of DART-A
ka (± SD) (Cynomolgus CD123-His): 1.5 (± 0.3) × 10^6 M^−1s^−1
kd (± SD) (Cynomolgus CD123-His): 4.0 (± 0.7) × 10^−4 s^−1
DART-A Monomer Peak Area in SE-HPLC FLR ([1]; Study 1, Stabilizer 1, dual-pump infusion RT, High (5000 ng/mL), Expected or Control (T0)): 1814623 EU * min
DART-A Monomer Peak Area in SE-HPLC FLR ([1]; Study 1, Stabilizer 1, dual-pump infusion RT, High (5000 ng/mL), T = 24 hours): 1483536 EU * min
DART-A Monomer Peak Area in SE-HPLC FLR ([1]; Study 1, Stabilizer 1, dual-pump infusion RT, High (5000 ng/mL), T = 48 hours): 1792023 EU * min
DART-A Monomer Peak Area in SE-HPLC FLR ([1]; Study 1, Stabilizer 1, dual-pump infusion RT, High (5000 ng/mL), T = 72 hours): 1804667 EU * min
DART-A Monomer Peak Area in SE-HPLC FLR ([1]; Study 1, Stabilizer 1, dual-pump infusion RT, Low (100 ng/mL), Expected or Control (T0)): 46006 EU * min
DART-A Monomer Peak Area in SE-HPLC FLR ([1]; Study 1, Stabilizer 1, dual-pump infusion RT, Low (100 ng/mL), T = 24 hours): 37026 EU * min
DART-A Monomer Peak Area in SE-HPLC FLR ([1]; Study 1, Stabilizer 1, dual-pump infusion RT, Low (100 ng/mL), T = 48 hours): 44708 EU * min
DART-A Monomer Peak Area in SE-HPLC FLR ([1]; Study 1, Stabilizer 1, dual-pump infusion RT, Low (100 ng/mL), T = 72 hours): 49122 EU * min
DART-A Monomer Peak Area in SE-HPLC FLR ([1]; Study 2, Stabilizer 1, cassette 25° C., 100 rpm, High (5000 ng/mL), T = 0): 41031471 EU * min
DART-A Monomer Peak Area in SE-HPLC FLR ([1]; Study 2, Stabilizer 1, cassette 25° C., 100 rpm, High (5000 ng/mL), T = 24 hours): 40529514 EU * min
DART-A Monomer Peak Area in SE-HPLC FLR ([1]; Study 2, Stabilizer 1, cassette 25° C., 100 rpm, High (5000 ng/mL), T = 48 hours): 41438367 EU * min
DART-A Monomer Peak Area in SE-HPLC FLR ([1]; Study 2, Stabilizer 1, cassette 25° C., 100 rpm, High (5000 ng/mL), T = 72 hours): 41582544 EU * min
DART-A Monomer Peak Area in SE-HPLC FLR ([1]; Study 2, Stabilizer 1, cassette 25° C., 100 rpm, Low (100 ng/mL), T = 0): 355660 EU * min
DART-A Monomer Peak Area in SE-HPLC FLR ([1]; Study 2, Stabilizer 1, cassette 25° C., 100 rpm, Low (100 ng/mL), T = 24 hours): 379757 EU * min
DART-A Monomer Peak Area in SE-HPLC FLR ([1]; Study 2, Stabilizer 1, cassette 25° C., 100 rpm, Low (100 ng/mL), T = 48 hours): 377121 EU * min
DART-A Monomer Peak Area in SE-HPLC FLR ([1]; Study 2, Stabilizer 1, cassette 25° C., 100 rpm, Low (100 ng/mL), T = 72 hours): 394028 EU * min
DART-A Monomer Peak Area in SE-HPLC FLR ([1]; Study 3, Stabilizer 1, cassette 37° C., 100 rpm, Low (100 ng/mL), T = 0): 397095 EU * min
DART-A Monomer Peak Area in SE-HPLC FLR ([1]; Study 3, Stabilizer 1, cassette 37° C., 100 rpm, Low (100 ng/mL), T = 72 hours): 368950 EU * min
DART-A Monomer Peak Area in SE-HPLC FLR ([1]; Study 3, Stabilizer 1, cassette 37° C., 100 rpm, second group, target concentration not given, T = 0): 41031489 EU * min
DART-A Monomer Peak Area in SE-HPLC FLR ([1]; Study 3, Stabilizer 1, cassette 37° C., 100 rpm, second group, target concentration not given, T = 72 hours): 39005201 EU * min
% Potency, CD3 binding ([2]; Post Infusion (Infusion Time = 48 Hrs)): 92%
% Potency, CD3 binding ([2]; Post Storage (T = 72 Hrs), room temperature): 101%
% Potency, CD3 binding ([2]; T = 0): 111%
